Data published in patent publication US10568949B2, “Method of eliciting an anti-tumor immune response with controlled delivery of TLR agonists in porous polymerlc devices” (President and Fellows of Harvard College, priority 2008, dated 2020).

B1: granulocyte macrophage colony stimulating factor (protein, UniProt P01587 18-141, looked up)
Granulocyte-macrophage …: APTRSPITVTRPWKHVEAIKEALNLLDDMPVTLNEEVEVVSNEFSFKKLTCVQTRLKIFEQGLRGNFTKLKGALNMTASYYQTYCPPTPETDCETQVTTYADFIDSLKTFLTDIPFECKKPGQK
notes: cytokine encapsulated in and released from PLG matrices to recruit DCs

Columns and labels:
[1] = system: host DCs; test: In vivo DC emigration from FITC painted scaffolds to inguinal lymph nodes; set-up: species or system C57BL/6J mice; conditions: mouse
Experimental: Blank scaffolds and scaffolds containing GM-CSF with or without 10 μg PEI-ODN control (5′-tcc atg agc ttc ctg agc tt-3′) (SEQ ID NO: 6) or 10 μg PEI-CpG-ODN condensate loaded scaffolds were implanted into subcutaneous pockets on the back of 7-9 week old male C57BL/6J mice. For histological examination scaffolds were excised and fixed in Z-fix solution, embedded in paraffin, and stained with hematoxylin and eosin. To analyze DC recruitment, scaffolds were excised and the ingrown tissue was digested into single cell suspensions using a collagenase solution (Worthingtion, 250 U/ml) that was agitated at 37° C. for 45 minutes. The cell suspensions were then poured through a 40 μm cell strainer to isolate cells from scaffold particles and the cells were pelleted and washed with cold PBS and counted using a Z2 coulter counter (Beckman Coulter). The resultant cell populations were then stained with primary antibodies (BD Pharmingen, San Diego, Calif.) conjugated to fluorescent markers to allow for analysis by flow cytometry. […] Cells were gated according to positive FITC, APC and PE using isotype controls, and the percentage of cells staining positive for each surface antigen was recorded. […]

[2] = system: B16-F10 tumors; test: Example 7: tumor infiltrating leukocyte (TIL) characterization; set-up: species or system C57BL/6J mice; conditions: mouse, in vivo
Experimental: On the indicated days, B16-F10 tumors were removed from mice, and digested in 1 mg/mL collagenase II (250 U/ml) (Worthington, Lakewood, N.J.) and 0.1 mg/mL DNase for 1 hour at 37° C. Dissociated cells were filtered through a 40-μm filter, and directly stained with antibodies for phenotype characterization by fluorescence-activated cell sorting (FACS) analysis. APC-anti-CD8 and PE-Cy7-anti CD3 were used to identify T cells isolated from the B16F10 tumors. These TILs were also costained with FITC-anti-IFNγ, and PE-anti-CD107a. All antibodies were obtained from eBioscience, San Diego, Calif.

[3] = system: B16-F10 melanoma cells; test: Example 7: therapeutic vaccination of established B16-F10 melanoma
Experimental: To assess PLG vaccine efficacy in the therapeutic setting, C57/BL6J mice were challenged with a subcutaneous injection of 5×10^5 B16-F10 melanoma cells (ATCC, Manassas, N.J.) in the back of the neck. At day 9 after tumor challenge PLG vaccines loaded with 3000 ng GM-CSF in combination with 100 μg of CpG-ODN, MPLA or P(I:C), and tumor lysates were implanted subcutaneously into the lower left flank of C57BL/6J mice. A subset of mice were vaccinated again 10 days after the initial vaccination (Days 19 and 23).
Mice challenged with 5×10^5B16-F10 melanoma cells were subsequently vaccinated at days 9 and 19, after tumors were established.

[4] = system: JAWSII DCs; test: In vitro DC migration toward CCL19 (transwell); assay type: cell-based
Experimental: Migration assays were performed with 6.5 mm transwell dishes (Costar, Cambridge, Mass.) with a pore size of 5 μm. To test whether CpG-ODN stimulation may affect DC chemotaxis towards CCL19 (Peprotech, Rocky Hill, N.J.) in the presence of GM-CSF, 5×10^5 DCs stimulated with either 5 μg/ml of CpG-ODN or PEI-CPG-ODN (Charge Ratio of 7), and 0, 50 and 500 ng/ml GM-CSF were placed in the top wells and 300 ng/ml of CCL19 was placed in the bottom well. After 12 hours the cells that migrated into the bottom wells of the chamber were harvested and counted using a coulter counter. Dispersement of DCs from PEI-CpG-ODN loaded PLG matrices toward CCL19 was assessed by incorporating 5, 50 and 500 μg of condensates into PLG scaffolds (13 mm diameter, 2 mm thick that were quartered) seeded with 1×10^6 DCs and fixed onto transwells using bovine collagen (BD Biosciences, San Jose, Calif.). To test the effects of CpG stimulation in the presence of GM-CSF, 500 ng/ml of GM-CSF was supplemented into the media of the top wells with scaffolds containing 25 μg of PEI-CpG-ODN. At various timepoints, the cells that migrated into the bottom wells of the chamber were harvested and counted using a coulter counter.

[5] = system: B16-F10 melanoma cells; test: Example 8: therapeutic vaccination, B16-F10 melanoma; assay type: in vivo, C57BL/6J mice; conditions: vaccinated three days after tumor challenge
Experimental: PLG scaffolds containing B16-F10 melanoma tumor lysates, 100 μg CpG-ODN in combination with 3 μg GM-CSF, Flt3L or CCL20 were implanted subcutaneously into the lower left flank of C57BL/6J mice to act as cancer vaccines. To assess PLG vaccine efficacy in the therapeutic setting, C57/BL6J mice were challenged with a subcutaneous injection of 5×10^5 B16-F10 melanoma cells (ATCC, Manassas, N.J.) in the back of the neck, and 3 days after tumor challenge PLG vaccines were implanted subcutaneously into the lower left flank. Animals were monitored for the onset of tumor growth (approximately 1 mm^3) and sacrificed for humane reasons when tumors grew to 20-25 mm (longest diameter).

[6] = system: TRP-2-specific cytotoxic T lymphocytes; test: Example 8: TRP-2-specific cytotoxic T lymphocytes in spleens (Day 10); set-up: species or system C57BL/6J mice; conditions: mouse, in vivo
Experimental: To determine the generation of TRP-2-specific cytotoxic T lymphocytes, single cell suspensions were prepared at Day 10 from the spleens of mice immunized with PLG vaccines. These cells were initially stained with PE-H-2Kb/TRP2 pentamers (Sigma Aldrich), and subsequently stained with FITC-anti-CD8 and PE-CY7 CD3 mAb (mAb (BD Pharmingen, San Diego) before being analyzed using flow cytometry.

[7] = system: bone marrow derived dendritic cells; test: Example 8: transwell chemotaxis and chemokinesis of bone marrow derived DCs; assay type: cell-based, C57BL/6 mice; conditions: 12 h
Experimental: Primary bone-marrow-derived dendritic cells (BMDCs) were flushed from the femurs of C57BL/6 mice and cultured in 100-mm bacteriological petri dishes (Falcon number 1029/Becton Dickinson). Cell culture medium RPMI-1640 (R10) (Sigma) was supplemented with 1% Penicillin-Streptomycin (Invitrogen), 2 mM 1-Glutamine (Invitrogen), 50 μM 2-mercaptoethanol (Sigma) and 10% heat-inactivated fetal bovine serum (FBS, Invitrogen). At day 0, bone marrow leukocytes were seeded at 2×10^6 cells per 100-mm dish in 10 ml R10 medium containing 20 ng/nil granulocyte-macrophage colony-stimulating factor (GM-CSF) (Peprotech). At day 3, another 10 ml R10 medium containing 20 ng/mL GM-CSF was added. to the plates. At days 6 and 8, half of the culture supernatant was collected and centrifuged, the cell pellet was resuspended in 10 ml fresh R10 containing 20 ng/mL GM-CSF, and placed back into the original plate. The non-adherent cell population in the culture supernatant was used between days 8 and 12 for all the experiments.
Transwell migration studies were performed by plating bone marrow derived dendritic cells in the top well of 6.5 mm transwell dishes (Costar, Cambridge, Mass.) with a pore size of 5 μm. The chemotactic effects of GM-CSF, FL (Flt3), and CCL20 on the migration of BMDCs was assessed by placing 500 ng/ml of recombinant murine GM-CSF, FL or CCL20 (Peprotech, Rocky Hill, N.J.) in the bottom wells and 3×10^5 DCs in the top wells. For chemokinesis studies, the concentration of cytokine in each compartment was equal at 500 ng/ml and 3×10^5 DCs were added to the top wells. The number of cells that migrated from the top well to the bottom well through the porous membrane was counted at the end of 12 h to quantify migration. Cells that had migrated to the bottom well were collected by treatment with 0.25% trypsin-0.03% ethylenediaminetetraacetic acid (EDTA, Invitrogen) and counted with a Z2 coulter counter (Beckman Coulter, Inc).

[8] = In vivo GM-CSF concentration in tissue around PLG implant; set-up: species or system C57BL/6J mice; conditions: for GM-CSF concentration in surrounding tissue: peak

Row | Molecule | increase in number of DCs recruited to matrices and subsequently dispersed to the lymph nodes [1] [fold] | increase in IFNγ(+), CD107a(+) TILs in comparison to controls [2] | complete tumor regression, fraction of vaccinated animals ([3]; mouse, in vivo) | size of tumors that completely regressed / were eradicated ([3]; mouse, in vivo) [mm^2] | long term survival of mice ([3]; vaccinated at days 9 and 19) [%] | concentration that inhibited DC migration toward CCL19 [4] [ng/mL] | long-term survival rate [5] [%] | Trp2 specific CTLs in spleens, higher than control vaccines [6] [fold] | DC chemotaxis, migration higher than control condition ([7]; 500 ng/ml in bottom wells) | DC chemokinesis, increase in number of migrated cells ([7]; homogenous cytokine 500 ng/ml) [%] | day of secondary peak for GM-CSF in vivo ([8]; 3000 ng dose) [days] | day of secondary peak for GM-CSF in vivo ([8]; 7000 ng dose) [days] | GM-CSF concentration difference over no incorporated GM-CSF ([8]; 12 hours post-implantation) [fold] | period elevated GM-CSF levels were maintained ([8]; mouse, in vivo) | GM-CSF concentration in surrounding tissue ([8]; 12 hours post-implantation, 1-3 mm from implant site) [µg/mL] | GM-CSF concentration in surrounding tissue ([8]; 12 hours post-implantation, 3-5 mm from implant site) [µg/mL]
1 | CpG-ODN 1826 | 6 | approximately 6.1 fold | over a third | 35 | 33 | – | – | – | – | – | – | – | – | – | – | –
2 | B1 | – | – | – | – | – | > 100 | 88 | ~4 | approximately 50% | 50 | 5 | 7 | > 30 | approximately 10 days | 100 | 30
